For this experiment, the target named is V1N, hybrid peptide of the collagen domain (POG)8 and the cell penetrating peptide domain (RRG)2, without the FITC reporter. The experiment in a line: circular dichroism; V1N/siRNA complex in Milli-Q water, 90 uM V1N and 5 uM siRNA, equilibrated 30 min at 25 °C or 37 °C; positive peak at 224 nm.

“V1N, hybrid peptide of the collagen domain (POG)8 and the cell penetrating peptide domain (RRG)2, without the FITC reporter” returned a stoichiometry N of 3.

The values are drawn from paper PMC6856157.
